The results in this text go back to EP1262190A1 (Takeda Chemical Industries, Ltd., dated 2001).

Assay [1] addresses human 0T7T022 receptor (human). The experiment in a line: cell-based or functional assay.
The target of assay [2] is rat cerebellum-derived novel G protein-coupled receptor protein r0T7T022L (rat). Kind of assay: cell-based or functional assay.

Where no end group is shown, it is not given here.

Chain of human 0T7T022 receptor (human) (Q9GZQ6 whole entry): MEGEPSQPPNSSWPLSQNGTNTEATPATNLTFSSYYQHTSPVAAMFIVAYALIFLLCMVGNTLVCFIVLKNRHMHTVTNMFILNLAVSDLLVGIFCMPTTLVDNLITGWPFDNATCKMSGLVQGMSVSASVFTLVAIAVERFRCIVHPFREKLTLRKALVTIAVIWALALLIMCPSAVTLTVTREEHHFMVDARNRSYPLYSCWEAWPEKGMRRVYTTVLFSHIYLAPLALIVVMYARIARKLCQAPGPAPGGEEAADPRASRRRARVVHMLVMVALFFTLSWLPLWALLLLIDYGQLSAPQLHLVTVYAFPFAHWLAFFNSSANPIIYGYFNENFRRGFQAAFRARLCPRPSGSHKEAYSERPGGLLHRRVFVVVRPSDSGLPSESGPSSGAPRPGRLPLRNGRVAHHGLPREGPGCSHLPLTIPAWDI

Take PQRF-NH2 [PQRFamide (peptide shown by Pro-Gln-Arg-Phe-NH2)]: the “ED50, inhibition of the cAMP level increased by forskolin” value in assay [1] was ≥ 1000 nM. Same read-out and setting: as for LPLRF-NH2 [LPLRFamide (peptide shown by Leu-Pro-Leu-Arg-Phe-NH2)], the figure is 36 nM. Take MPHSFANLPLRF-NH2 [peptide MPHSFANLPLRFamide (Met-Pro-His-Ser-Phe-Ala-Asn-Leu-Pro-Leu-Arg-Phe-NH2)]: the “IC50 of inhibiting the cAMP production (forskolin-stimulated)” value in assay [2] was determined as 0.5 nM. The “ED50, inhibition of the cAMP level increased by forskolin” value in assay [1] amounted to 4.5 nM. In the case of NPFF [NPFF (peptide shown by Asn-Pro-Phe-Phe)], the “ED50, inhibition of the cAMP level increased by forskolin” value in assay [1] is 140 nM.
